Laboratory results as given in PMC10111636.

Tests used:
Details in all cases: glycan lost; control: Flag-LARP1-WT
[1] = cycloheximide chase, Western blot
[2] = Western blot, TMG with or without sh-circCLNS1A#1
[3] = cycloheximide chase, sh-circCLNS1A#1 vs sh-NC cells

La-related protein 1 (LARP1): S672A
degradation_or_half_life [1]: decreases
other: dependence of protein level on circCLNS1A [2]: abolishes
other: dependence of protein stability on circCLNS1A [3]: abolishes
